T1: MSP-MS library tetradecapeptide KWLIHPTFSYnRWP
T1 chain: KWLIHPTFSYNRWP

B1: recombinant mature Sap5 (secreted aspartyl protease 5) from Candida albicans, expressed in Pichia pastoris (protein)
chain: GPVAVTLHNEAITYTADITVGSDNQKLNVIVDTGSSDLWIPDSNVICIPKWRGDKGDFCKSAGSYSPASSRTSQNLNTRFDIKYGDGSYAKGKLYKDTVGIGGVSVRDQLFANVWSTSARKGILGIGFQSGEATEFDYDNLPISLRNQGIIGKAAYSLYLNSAEASTGQIIFGGIDKAKYSGSLVDLPITSEKKLTVGLRSVNVRGRNVDANTNVLLDSGTTISYFTRSIVRNILYAIGAQMKFDSAGNKVYVADCKTSGTIDFQFGNNLKISVPVSEFLFQTYYTSGKPFPKCEVRIRESEDNILGDNFLRSAYVVYNLDDKKISMAPVKYTSESDIVAIN
B2: recombinant mature Sap6 (secreted aspartyl protease 6) from Candida albicans, expressed in Pichia pastoris (protein)
chain: GPVAVKLDNEIITYSADITVGSNNQKLSVIVDTGSSDLWIPDSKAICIPKWRGDCGDFCKNNGSYSPAASSTSKNLNTRFEIKYADGSYAKGNLYQDTVGIGGASVKNQLFANVWSTSAHKGILGIGFQTNEATRTPYDNLPISLKKQGIIAKNAYSLFLNSPEASSGQIIFGGIDKAKYSGSLVELPITSDRTLSVGLRSVNVMGRNVNVNAGVLLDSGTTISYFTPSIARSIIYALGGQVHFDSAGNKAYVADCKTSGTVDFQFDKNLKISVPASEFLYQLYYTNGKPYPKCEIRVRESEDNILGDNFMRSAYIVYDLDDKKISMAQVKYTSESNIVAIN

Target: T1, MSP-MS library tetradecapeptide …

Protein | kcat/Km (mass spectrometry-based cleavage time course)
B1 | 4.4×10^4 M^-1 s^-1 (Sap5)
B2 | 2.0×10^5 M^-1 s^-1 (Sap6)

From US20190056395
